Blank lines part the entries; values can stand above or below the substance they belong to.
Assays:
pbx1_mouse Pbx1 = pbx1_mouse Pbx1 (UniProt P41778)
exd_drome exd [1] = target: exd_drome exd (UniProt P40427)
exd_drome exd [2] = target: exd_drome exd (UniProt P40427); remark: listed apart in the source
exd_drome exd [3] = target: exd_drome exd (UniProt P40427); remark: listed apart in the source

exd_drome exd, sequence (P40427 whole entry): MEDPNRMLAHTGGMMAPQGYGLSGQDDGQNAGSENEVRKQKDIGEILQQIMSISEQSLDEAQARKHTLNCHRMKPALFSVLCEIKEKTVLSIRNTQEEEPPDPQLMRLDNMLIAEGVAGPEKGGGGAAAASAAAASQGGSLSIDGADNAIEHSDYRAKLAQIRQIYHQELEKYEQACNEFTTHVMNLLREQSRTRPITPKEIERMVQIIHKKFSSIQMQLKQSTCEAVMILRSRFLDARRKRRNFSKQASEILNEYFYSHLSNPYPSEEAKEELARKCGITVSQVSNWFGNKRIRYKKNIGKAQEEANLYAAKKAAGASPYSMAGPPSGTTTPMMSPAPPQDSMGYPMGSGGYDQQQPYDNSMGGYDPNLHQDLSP
Homeobox protein abdominal-A (Drosophila melanogaster (Fruit fly)), P29555 T375A;D376A;W377A, sequence (P29555 whole entry T375A/D376A/W377A): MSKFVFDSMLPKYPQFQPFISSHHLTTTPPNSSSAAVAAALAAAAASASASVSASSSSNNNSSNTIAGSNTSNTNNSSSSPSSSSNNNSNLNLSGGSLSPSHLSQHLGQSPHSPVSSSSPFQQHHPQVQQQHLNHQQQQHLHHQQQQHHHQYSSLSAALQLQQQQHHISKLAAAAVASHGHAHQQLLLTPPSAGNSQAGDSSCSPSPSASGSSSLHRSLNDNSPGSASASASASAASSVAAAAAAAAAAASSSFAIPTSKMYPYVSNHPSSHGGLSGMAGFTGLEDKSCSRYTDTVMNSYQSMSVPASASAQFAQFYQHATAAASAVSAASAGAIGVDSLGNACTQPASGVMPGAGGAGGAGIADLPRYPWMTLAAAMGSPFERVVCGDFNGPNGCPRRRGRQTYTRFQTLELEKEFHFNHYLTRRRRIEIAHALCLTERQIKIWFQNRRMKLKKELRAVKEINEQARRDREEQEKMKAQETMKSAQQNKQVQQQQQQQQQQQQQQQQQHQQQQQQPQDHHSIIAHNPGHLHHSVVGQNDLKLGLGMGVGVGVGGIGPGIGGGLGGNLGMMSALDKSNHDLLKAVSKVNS
Homeotic protein ultrabithorax (Drosophila melanogaster (Fruit fly)), P83949 K358A;E359A;N361A;E362A;Q363A, sequence (P83949 whole entry K358A/E359A/N361A/E362A/Q363A): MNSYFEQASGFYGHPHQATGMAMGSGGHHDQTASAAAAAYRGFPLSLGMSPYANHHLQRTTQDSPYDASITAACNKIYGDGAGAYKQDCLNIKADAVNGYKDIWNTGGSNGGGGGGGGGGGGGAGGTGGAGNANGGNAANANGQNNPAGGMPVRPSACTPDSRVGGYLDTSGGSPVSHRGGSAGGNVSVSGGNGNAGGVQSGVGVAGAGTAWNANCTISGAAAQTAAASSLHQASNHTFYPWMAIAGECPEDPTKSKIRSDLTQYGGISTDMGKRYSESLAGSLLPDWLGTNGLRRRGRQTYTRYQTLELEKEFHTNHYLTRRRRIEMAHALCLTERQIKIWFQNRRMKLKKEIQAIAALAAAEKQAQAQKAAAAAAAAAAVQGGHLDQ
pbx1_mouse Pbx1, sequence (P41778 whole entry): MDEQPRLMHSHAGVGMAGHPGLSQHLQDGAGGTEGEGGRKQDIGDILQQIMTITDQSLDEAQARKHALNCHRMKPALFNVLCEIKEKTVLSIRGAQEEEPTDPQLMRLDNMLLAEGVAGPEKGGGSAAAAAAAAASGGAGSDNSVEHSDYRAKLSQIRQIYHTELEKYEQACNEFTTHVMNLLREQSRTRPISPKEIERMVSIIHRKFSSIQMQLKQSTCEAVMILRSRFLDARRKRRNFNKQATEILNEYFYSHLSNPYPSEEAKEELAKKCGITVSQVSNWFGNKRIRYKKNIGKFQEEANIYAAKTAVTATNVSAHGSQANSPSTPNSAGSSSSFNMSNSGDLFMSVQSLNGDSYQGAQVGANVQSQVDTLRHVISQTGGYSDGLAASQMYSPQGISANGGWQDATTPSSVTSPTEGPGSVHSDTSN
Homeobox protein abdominal-A (Drosophila melanogaster (Fruit fly)), P29555 E462A;I463A;N464A;E465A, sequence (P29555 whole entry E462A/I463A/N464A/E465A): as the sequence (P29555 whole entry T375A/D376A/W377A) above, with A375T, A376D, A377W, E462A, I463A, N464A, E465A counted along it
Homeobox protein Hox-B8 (Mus musculus), P09632 W137A;M138A, sequence (P09632 whole entry W137A/M138A): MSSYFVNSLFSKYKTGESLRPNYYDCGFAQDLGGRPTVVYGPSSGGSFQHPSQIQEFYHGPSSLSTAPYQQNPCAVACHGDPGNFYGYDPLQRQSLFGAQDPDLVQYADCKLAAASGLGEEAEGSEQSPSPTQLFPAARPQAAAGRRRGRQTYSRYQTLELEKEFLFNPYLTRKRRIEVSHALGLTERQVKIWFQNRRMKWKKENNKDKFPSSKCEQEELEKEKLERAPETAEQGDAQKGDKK
Homeotic protein labial (Drosophila melanogaster (Fruit fly)), P10105 K393A;W394A;M395A, sequence (P10105 other isoform, or with tags, fused parts or gaps K393A;W394A;M395A): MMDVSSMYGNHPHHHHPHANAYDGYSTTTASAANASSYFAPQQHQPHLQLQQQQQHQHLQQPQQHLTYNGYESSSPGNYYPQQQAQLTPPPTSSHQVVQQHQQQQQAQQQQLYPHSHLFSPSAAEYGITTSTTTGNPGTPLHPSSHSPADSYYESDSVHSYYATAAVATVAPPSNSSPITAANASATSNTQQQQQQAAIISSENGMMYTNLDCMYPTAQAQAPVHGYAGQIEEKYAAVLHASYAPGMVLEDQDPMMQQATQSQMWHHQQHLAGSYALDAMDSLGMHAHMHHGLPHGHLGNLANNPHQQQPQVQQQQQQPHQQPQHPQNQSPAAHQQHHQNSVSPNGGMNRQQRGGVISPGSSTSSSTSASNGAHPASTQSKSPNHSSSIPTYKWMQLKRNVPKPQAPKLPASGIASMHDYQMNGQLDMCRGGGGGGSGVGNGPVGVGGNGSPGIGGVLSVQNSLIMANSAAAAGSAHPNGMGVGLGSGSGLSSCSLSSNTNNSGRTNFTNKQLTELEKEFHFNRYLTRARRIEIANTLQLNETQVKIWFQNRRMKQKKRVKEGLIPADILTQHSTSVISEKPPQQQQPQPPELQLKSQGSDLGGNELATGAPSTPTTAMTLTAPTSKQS

effect of a mutation on the interaction (pbx1_mouse Pbx1): decreasing interaction strength
Substance: Homeobox protein Hox-B8 (Mus musculus), P09632 W137A;M138A

effect of a mutation on the interaction (exd_drome exd [1]): decreasing interaction strength
Substance: Homeobox protein abdominal-A (Drosophila melanogaster (Fruit fly)), P29555 E462A;I463A;N464A;E465A

effect of a mutation on the interaction (exd_drome exd [1]): decreasing interaction strength
Substance: Homeobox protein abdominal-A (Drosophila melanogaster (Fruit fly)), P29555 T375A;D376A;W377A

effect of a mutation on the interaction (exd_drome exd [2]): decreasing interaction strength
Substance: Homeotic protein labial (Drosophila melanogaster (Fruit fly)), P10105 K393A;W394A;M395A

effect of a mutation on the interaction (exd_drome exd [3]): decreasing interaction strength
Substance: Homeotic protein ultrabithorax (Drosophila melanogaster (Fruit fly)), P83949 K358A;E359A;N361A;E362A;Q363A

— IntAct's records for PubMed 22745600
